Test results taken from the nanobody polyreactivity screen of Harvey et al. (2022).

Assay: yeast display, Sf9 membrane polyspecificity reagent, FACS + sequencing; frameworks hold sequencing errors
Procedure, shortened: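 Galactose-induced (36–48 hours) yeast carrying a synthetic nanobody display library were exposed to 10% biotinylated, detergent-solubilized Sf9 membrane reagent at 4 °C for 1 hour. FACS followed streptavidin microbead enrichment, using low and high (top ~1%) gates for expression (anti-HA) and reagent binding (streptavidin). Colony PCR, MiSeq 2 × 250 sequencing and CDR-length filtering followed. Labels for polyreactivity reflect the gate of origin.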

Sequence	polyreactivity (PSR sort gate)
QVQLVESVGRLVQAGGSLRLSCAASGSTITPNAMGWYRQAPGKERELVAAINWSGTSTYYADSVKGRFTISRDNEKNTVYLQMNSLKQEDTAVYSCAASYPDVDYDYWGHGTQVTVSS	high polyreactivity
QVQLVESVGVLVKAGGSLRLSCAASGRIYSSYALGWYRQAPGKEREFVAYISNSGGSTYYADSVKGRFTISRDNAKNTVYLQMNILKPEDTAVYYCAAAVYSYTYRYYYWGQGTQLTVSS	high polyreactivity
QVQLVESVRGLFQAGGSLRLSCAASGFTFYIYDMGWYRQAPGTERELVAAITWSGGRTYYADSVKGRFTISRDNAKNTVYFQMNSLKPEDTAVYYCAASYPGLSFHKYEYWGQGTQLTVSS	high polyreactivity
QVQLVESVVGLVQAGGSLRLSCAASGRIFFAYTMGWYRQAPGKERELVAAISSSGSTYYADSVKGRFTISRDNAKNTVYLQMNSLKPEDTAVYYLRVQRRAYRYDYWGQGTKVTVSS	high polyreactivity
QVQLVESVVGLVQAGLSLRLSSAASGSIFSGYMGWYRHAPGKERELVATITSGGSTYADSVKGRFTISRDNAKNTVYLQMNSLKPEDTAVYYCAADVSFYTSKYDYWGLGTQVTVSS	low polyreactivity
QVQLVESVVGLVQAGVSLRLSCAASGFIVYANAMGWYRQAPGKERELVAAISRGTSTYYADSVKGRFTISRDNAKNTVYLQMTSLKPEDTAVYYCATYYYRPWGGYYWGQGTQVTVSS	high polyreactivity
QVQLVESWAGIVQAGGSLRVSCAASGSTFDRYAMGWYRQAPGKERELVAAISWSAGRTYYADSVKGRFTISRDNAKNTVYLQMNSLKPDDTAVYYCAADQIVSGTYDYYWGQGTHVTVSS	low polyreactivity
QVQLVESWEGLVQAGGRLRLSCAASGSIFRPYTMGWYRQAPGKERELVATISSTGITNYADSVKGRFTISRDNAKITVYLQMNSLKPEVTAVYYCAAGLWFSYDYWGQGTQVTVSS	high polyreactivity
QVQLVESWGGLDQAGGSLRLSCAASGRNLYWNTMGWYRQPPGKETQLVASITQNVGSTYYADSVKGRFTISRDFAKNTVYLQMNSLKPEDTAVYDCAAKRLYWLRYGYWGQGTQDTVSS	low polyreactivity
QVQLVESWGGLFQAGGSLRLSCAASGSIFVWYAMGRSRQAPGKEMELVAVISYGGDRTSYADSVKGRFTISRDNAKNTVYLQMNSLKPEDTAVYYCAARPFYRGYYYWGQGTQVTVSS	high polyreactivity
QVQLVESWGGLVQAGCSLRLRCAASGRIFGPYAMGWYRQARGQERELVAAISRSGGSTYYADSVKGRFTISRDNAKNTVYLQMKSLNPEDTAVYYCNARFVIYSRVDYWGQGTQVTVSS	low polyreactivity
QVQLVESWGGLVQAGGSLRLSCAASGFTFTWYAMGWSRQAPGKERELLAAITSSGGSTYYADSVKGRFTISRDNAKNTVYLQMNSLKPEDTAVYYCAAKSYWSGYFVGYEYWGQGTQVTVSS	high polyreactivity
QVQLVESWGGLVQAGGSLRLSCAASGGTFSANAMGWYRQAPGKERELVAAISTSGGSTHYADSVKGRFTISRDSAKNTVYLQMNSLNPEDTAVYYCAARLYSYRRQYGYWGHGTQVTVSS	high polyreactivity
QVQLVESWGGLVQAGGSLRLSCAASGINFQNYDMGWYRQAPGKERELVAAINGSGGSTYYADSVKGRFTISRDNANNTVYLQMNSLKPEDTAVYYCNAVWEYYGKSDYWGQGTQVTVSS	low polyreactivity
QVQLVESWGGLVQAGGSLRLSCAASGITFDGYDMGWYRQAPGKERELVATIDSGGITYYADSVKGRFTISRDNAKNTVYLQMNSLKPEDTAVYYCNADEWYYNFDIVEFDYWGQGTQVTVSS	low polyreactivity
QVQLVESWGGLVQAGGSLRLSCAASGLIFYYNAMAWYRQAPGKERELVAAISRRGGGTYYADSVKGRFTISRDNAKNTVYLLMNSLKPEDTAVYYCAAGSPFSPGKYDYWGQGTQVSVSS	high polyreactivity
QVQLVESWGGLVQAGGSLRLSCAASGLTFETYVMGRYRQAPGKEREFVAAISSSGRTYYADSVKGRFTISRDNAKNTVYLQMNSLKPEDTAFYYCAARGREFGYWGQGTQVTVSS	high polyreactivity
QVQLVESWGGLVQAGGSLRLSCAASGMGRYRQAPGKERELVAAINWSGGNTYYADSVKGRFTISRDNAKNTVYLQMNSLIPEDTAVDYCNAVVWVEVPGDYWGQGTQVTVSS	low polyreactivity
QVQLVESWGGLVQAGGSLRLSCAASGRIFKRNTMGWNRQAPGKQRELVAAITGSSGSTYYADSVKGRFTNSRDNAKNTVYLQMNSLKPEDTAVYYCNTVRSVYQYWPYNYWGQGTQVTVSS	high polyreactivity
QVQLVESWGGLVQAGGSLRLSCAASGRIFRGYAMGWYRQAPGKERELVAVISYSGTRTYYADSVKGRFTISRDNAKNTVYLQMNSLKPEDTAVYYCNARANGFKDGYWGQGTQVTVSS	high polyreactivity
QVQLVESWGGLVQAGGSLRLSCAASGRIFVKYAMGWYRQAPGKERELVAAISWIGGSTYYADSVKGRFTISRDNAKNTVYLQMNSLKPEDTAVYYCAAQGKDYEASPGYDGGRNYWGQGTQVTVSS	low polyreactivity
QVQLVESWGGLVQAGGSLRLSCAASGRTFKIYTMGWYRQAPGKERELVAAISRGGSTYYADSVKGRFTISRDNAKNTVYLQMNSLKPEDTAVYYCAVDLYYLSSASTRQVRRDYWGQGTQVTVSS	high polyreactivity

Sequence	polyreactivity (PSR sort gate)
QVQLVESWGGLVQAGGSLRLSCAASGSIFAINAMGWYRQAPGTERELVAAIRSGGRTYYADSVKGRFTISRDNAKNTVYLQMNSLKPEDTAVYYCNAGGKWIGSDYCGQGTQVTVSS	high polyreactivity
QVQLVESWGGLVQAGGSLRLSCAASGSIFRPYAMGWYRQAPGKERELVAAISSSGGSTYYADSVKGRFTISRDNAKNTVYLQMNSLKPEDTAVYYCAAESRSTWIHSRDYWGQGTQVTVSS	low polyreactivity
QVQLVESWGGLVQAGGSLRLSCAASGSIFYSNAMGWYSQAPGKERELVAAIRTSAGSTYYADSVKGRFTISRDTAKNTVYLQMNSLKPEDTAVYYCAAVTTYYYYDVSDYAYEFYYWGQGTQVTVSS	low polyreactivity
QVQLVESWGGLVQAGGSLRLSCAASGSTFDVNAMGWYRQAPGKERELVAAISWNSGSTYYADSVKGRFTISRDNAKNTVYLQMNSLKPEDTAVYYCAARNPFNHPLDYWGQGTQVTVSS	high polyreactivity
QVQLVESWGGLVQAGGSLRLSCAASGSTFQPYAMGWYRQAPGKERELVAAIRSIAGSTYYADSVKGRFTISRDNAKITVYLQMNSLKPEDTAVYYCAADWWRVEMDYWGQGTQVTVSS	low polyreactivity
QVQLVESWGGLVQAGGSLRLSCAASGSTFVKNAMGWYRQAPGKERELVAAISYRGGRTYYADSVKGRYTISRDNAKNTVYLQMNSLKPEDTAVYYCNARYRTPSFIRMGYWGQGTQVTVSS	high polyreactivity
QVQLVESWGGLVQAGGSLRLSCAASGSTIDTNTMGWYRQAPGKEREWVAAITWSDASTYADSVKGRFTISRDNAKNTVYFQMNSLKPEDTAVYYCNADWTITVGYDYWGQGTKVTVSS	low polyreactivity
QVQLVESWGGLVQAGGSLRLSCAASGSTLGNNGMGWYRQAPGKERELVAAIDSTVTTNYADSVKGRFTISRDNAKKSVYLHMNSLKPEDTAVYYCAADYWGQGTQVTVSS	low polyreactivity
QVQLVESWGGLVQAGGSLRLSCADSGRIFLRNTMGWYRQAPGKERELVATISKSAGSTYYADSVKGRFTISRDNAKNSVYLQMNSLKPEDTAVYYCATSRYLKLGYDYWGQGTQVTVSS	high polyreactivity
QVQLVESWGGLVQAGGSLRLSCADSGSTFNVNAMGWYSQAPGKESELVATITESGGRTYYADSVKGRFTISRDYAKNNVYLQMNSLKPEDTAVYYCARGDAWTFDYEPYDYWGQGTQVTVSS	low polyreactivity
QVQLVESWGGLVQAGGSLRLSCASSGITFSPYALGWYRQAPGKERELVAAISSRGGSTYYADSVKGRFTISRDNAKNTVYFQMNSLKPEDTAVFYCNALTFVRYLFHYTYWGQGTQVTVSS	high polyreactivity
QVQLVESWGGLVQEGRSLRLSCAASGYTFQRYNIRWYRPAPGKERELVAAINWSGGSTYYADSVKGRFTISRDNAMNTVYLQMIWLKPEDTAVYYFSRRYRDYGGYGYWGQGTQVSVSS	high polyreactivity
QVQLVESWGGLVQSGGSLRLISAASGRTYYYYVMGCYRQAPGKERDLVATINSGASTYYADSVKGRFTISRDNAKNTVYLQMNSLNPEDTAVYYCAACVLRRIAGVRYRYGFWGQGTQVTVSS	high polyreactivity
QVQLVETAGGLVQAGASLRLSSAASGITFAYYAMGWYRQAPAKERELVAAISSSGGSTYYADSVKGRFTISRDNAKNTVYLQLNSLNPEDTAVYYCAVDYSYWVEYWGLGTQVTVSS	high polyreactivity
QVQLVETAGGLVQAGGSLRLSSAASGRTFTLNAMGWYRQAPGKERELVATISRRGGSTYYADSVKGRFTISRDNAKNTVYLQMNSLNPEDTAVYYCNAGSSVLKYDYWGQGTEVTVSS	low polyreactivity
QVQLVETGGALVQAGGSLRLSCAASGYTFYRYAMGWYRQATGKERELVAAISYSGGRTYYADSVKGRFTISCDIAKNTVYLQMNSLKPEDTAVYYCNARASYGHQGRLGYARLYYWGQGTQVTVSS	high polyreactivity
QVQLVETGGCLVQAGGSLRLSCAASGFTFRGYAMGWYRQAPGKERELVAAITAGGGSTSYADSVKGRFTISRDNAKNTVYLLMNSLKPEDTAVYYCAKDRYYGYFRSRSDYWGQGTQVTVSS	high polyreactivity
QVQLVETGGCLVQAGGSLRLSCAASGSTLHYYAMGWSRQAPGKQREFVAGISRYGGRTYNADSVKGRFTISRDNAKNTVYLQMNSLKPEDTAVYYCNAVLVGYRPYREFDHWGQGTQVTVSS	high polyreactivity
QVQLVETGGGIVQAGGSLRLSCAAYGRILWYYAMGWYRQAPGKERELVAAITSGGSTYYADSVKGRFTLSRDIAKNTVYLQMNSLKPEDTAVYYCNAYYTYRFNYWGQGTQVTVSS	high polyreactivity
QVQLVETGGGLDQAGGSLRLRCAASGSIFLIYGMGWYRQAPGKERELDAAITARCGSTYYADSVKGRFTISRDNAKNTVYLLMNSLKPEDTAVYYCAADEYEALGKFQPYQFDYWGQGTQVTVSS	low polyreactivity
QVQLVETGGGLDQAGGSLRLSCAASGRTSRYAMGWYRQAPGKEMELVAAISRNGRTTSYADSVKGRFTISRDNAKNTVYLQKNSLKPEDTAVDYCNAYSAFVPPTRGYYWGQGTQVTVTS	high polyreactivity
